This passage reports Kd results from publication PMC6104973.

In one assay the target is ALX148 (human). In words: SPR; hFcRn flowed (0-5000 nM) over ALX proteins captured on a GLC chip with immobilised human CD47 ECD; 25°C; PBS pH 5.8, 0.01% Tween-20; equilibrium analysis; apparent. Background: SPR reads the build-up and loss of mass on a sensor chip optically.
Another assay concerns the target CD47 (Homo sapiens) (UniProt Q08722). The settings on record: cited from earlier work.
Sequence of UniProt Q08722 (Q08722 19-323): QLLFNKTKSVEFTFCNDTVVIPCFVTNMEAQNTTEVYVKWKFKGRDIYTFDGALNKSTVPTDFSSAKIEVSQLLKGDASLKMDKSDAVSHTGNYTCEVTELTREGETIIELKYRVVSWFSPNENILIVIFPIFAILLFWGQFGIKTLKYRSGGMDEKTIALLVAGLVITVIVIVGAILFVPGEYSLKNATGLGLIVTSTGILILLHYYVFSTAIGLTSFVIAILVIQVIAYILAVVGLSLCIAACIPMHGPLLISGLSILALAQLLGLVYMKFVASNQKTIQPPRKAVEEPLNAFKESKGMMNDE

Take “human neonatal Fc receptor (FcRn) (from UniProt P55899 24-297)”: the Kd in the assay with ALX148 (human) is 580 nM.
As to SIRPα (from UniProt P78324), in the assay with CD47 (Homo sapiens), the Kd is 1000 nM.
